Experimental data: patent publication US20030084477, “Genes enhancing disease resistance in plants” (published 2003)

Columns and labels:
[1] = target: T1, GST-Pti5 (Solanum lycopersicum, UniProt O04681 O04681:1-161); assay: EMSA; 25 mM Hepes pH 7.5, 40 mM KCl, 0.1 mM EDTA, 10% glycerol, 1 mM DTT, poly(dA-dT), room temp; WT sequence printed with stray 'to' in the middle; conditions: tags: N-terminal GST (pGEX, E. coli PR745; cDNA nt 82-782); label: 32P end label
Procedure: (§1) The wild type gln2 PR-box 2x ([…] to […]) and mutated PR-box 2x ([…]) were end-labeled by 32P as described by Ausubel, F. M., Brent, R., Kingston, R. E., Moore, D. D., Seidman, J. G., Smith, J. A., and Struhl, K. (1994). Current Protocols in Molecular Biology. (New York: Greene Publish Associates/John Wiley and Sons). Four fmol of probe was mixed with each of the purified GST-fusion proteins in a buffer containing 2 μg poly(dA-dT) (dA-dT), 25 mM Hepes (PH7.5), 40 mM KCl, 0.1 mM EDTA, 10% glycerol, and 1 mM DTT, incubated at room temperature for 15 minutes, and electrophoresed on a 4% polyacrylamide gel in 0.25×TBE buffer. Ohme-Takagi, M. and Shinshi, H. (1995). Ethylene-inducible DNA-binding proteins that interact with an ethylene-responsive element. Plant Cell 7, 173-182. The gel was subsequently dried and exposed to x-ray film. […] In contrast to GST-Pti5 and GST-Pti6, neither GST-Ptil nor GST itself bound to the PR-box.

[2] = target: T1, GST-Pti5; assay: EMSA; no binding detected; conditions: tags: N-terminal GST (pGEX, E. coli PR745; cDNA nt 82-782); label: 32P end label
Procedure: as §1

T1 sequence (O04681 whole entry, the tested form may be a part, one chain of several): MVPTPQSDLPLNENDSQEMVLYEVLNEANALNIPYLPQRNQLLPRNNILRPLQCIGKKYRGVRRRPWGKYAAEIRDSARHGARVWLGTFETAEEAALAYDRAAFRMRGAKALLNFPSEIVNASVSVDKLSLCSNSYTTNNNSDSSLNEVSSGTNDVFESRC

Binder | binding result [1] | binding result [2]
wild type gln2 PR-box 2x (dsDNA) DNA 1: CATAAGAGCCGCCACTAAAATAAGACCGATCAAATAAGAGCCGCCAT DNA 2: ATGGCGGCTCTTATTTGATCGGTCTTATTTTAGTGGCGGCTCTTATG | binds | –
mutated PR-box 2x (dsDNA) DNA 1: CATAAGATCCTCCACTAAAATAAGACCGATCAAATAAGATCCTCCAT DNA 2: ATGGAGGATCTTATTTGATCGGTCTTATTTTAGTGGAGGATCTTATG | – | no binding
